# Results published in patent US12421510B2, “Peptide, a complex and a method for treating cancer” (TECHNION RESEARCH & DEVELOPMENT FOUNDATION LIMITED, priority 2018, dated 2025).
# Entries after “also recorded” stand apart in the source; their conditions may differ.
# T1: p105 (Homo sapiens, UniProt P19838)
# T1 sequence (P19838 1-968): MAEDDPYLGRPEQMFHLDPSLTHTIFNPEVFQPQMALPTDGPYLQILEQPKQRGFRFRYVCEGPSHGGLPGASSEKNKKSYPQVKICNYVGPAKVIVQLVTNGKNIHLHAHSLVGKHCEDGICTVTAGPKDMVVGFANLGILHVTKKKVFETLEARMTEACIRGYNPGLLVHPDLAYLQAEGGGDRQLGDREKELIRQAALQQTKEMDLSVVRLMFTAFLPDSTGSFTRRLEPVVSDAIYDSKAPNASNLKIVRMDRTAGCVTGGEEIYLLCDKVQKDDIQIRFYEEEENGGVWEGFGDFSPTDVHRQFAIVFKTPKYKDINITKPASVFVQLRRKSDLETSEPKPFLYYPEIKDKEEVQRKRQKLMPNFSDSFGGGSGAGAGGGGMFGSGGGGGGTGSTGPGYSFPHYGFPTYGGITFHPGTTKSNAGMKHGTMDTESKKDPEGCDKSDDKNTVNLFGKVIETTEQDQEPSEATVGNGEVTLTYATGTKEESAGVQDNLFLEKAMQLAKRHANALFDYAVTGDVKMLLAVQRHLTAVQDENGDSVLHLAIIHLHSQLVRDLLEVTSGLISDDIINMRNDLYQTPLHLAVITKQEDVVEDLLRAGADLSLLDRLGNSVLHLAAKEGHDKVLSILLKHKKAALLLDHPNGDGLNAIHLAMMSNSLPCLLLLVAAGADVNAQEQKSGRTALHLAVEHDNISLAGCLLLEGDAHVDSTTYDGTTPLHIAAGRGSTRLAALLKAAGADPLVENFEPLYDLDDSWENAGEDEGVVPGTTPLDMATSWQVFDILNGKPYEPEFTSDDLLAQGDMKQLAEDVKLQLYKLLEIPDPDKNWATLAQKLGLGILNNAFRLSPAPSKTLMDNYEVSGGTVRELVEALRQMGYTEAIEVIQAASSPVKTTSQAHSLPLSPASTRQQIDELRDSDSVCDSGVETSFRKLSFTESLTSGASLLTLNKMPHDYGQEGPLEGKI
# Assays:
# Type in all cases: biochemical
# [1] = molecular target: T1, p105; test: Competition by synthetic KPC1-derived peptides of p105 ubiquitination by KPC1-Δ1-967 in reconstituted cell-free system; conditions: compared to 6 amino acids ILVRLW peptide
# From the text: Presented is the change (in %) of unconjugated p105 remained following addition of increasing concentrations of the peptides (compared to a system to which a peptide was not added; lane 3). Amid denotes N-terminal amidation and Ac denotes C-terminal acetylation.
# Presented is the change (in %) of unconjugated p105 remained following addition of increasing concentrations of the peptides (compared to a system to which a peptide was not added; lane 2).
# To further confirm that 7 amino acids WILVRLW of KPC1-Δ1-967 (SEQ ID. No. 5) are involved in the interaction with p105, an experiment was designed in which the binding of p105 to the ligase was competed with a synthetic peptides derived from KPC1.
# [2] = molecular target: T1, p105; test: Processing of p105 by purified proteasome in cell free system in presence of KPC1 deleted species; conditions: 35S-labeled p105 (FIG. 7)
# From the text: In vitro translated and ^355-labeled p105 was processed by purified proteasome (lanes 2-7) in the presence of purified KPC1-Δ1-967-6xHIS (lanes 4-5) or KPC1-Δ1-974-6xHIS (lanes 6-7) as indicated. Lane 8 represents processing of p105 in the system that contained Fraction 2. Cell extract is fractionated over the anion-exchange resin diethylaminoethyl (DEAE)-cellulose, where ubiquitin is eluted in Fraction I, the unabsorbed, flow-through material that contains also certain E2 enzymes. Fraction II, the high salt eluate, contains E1, the remaining E2s, all the E3s, and the 26S proteasome, but not free ubiquitin. Processing is the amount of p50 produced in the reaction. All values relate to 100%, which is the set point for processing of p105 in a system that lacks proteasome and KPC1 (lane 1).
# [3] = molecular target: T1, p105; test: Ubiquitination of p105 by purified KPC1 species in cell-free conjugation assay; conditions: reconstituted cell-free system, in vitro translated 35S-labeled p105, purified Ub, E1, E2, UbAl, ATP
# From the text: FIGS. 4A and 4B represent western blots showing in vitro ubiquitination of p105 by mutated species of KPC1: FIG. 4A: In vitro translated and ^35S-labeled p105 was ubiquitinated by purified KPC1-Δ1-967-6xHIS (lanes 2-4) or KPC1-Δ1-974-6xHIS (lanes 5-7) in a reconstituted cell-free system. 4B) In vitro translated and ^355-labeled p105 was ubiquitinated by purified KPC1-Δ1-967-6xHIS (lanes 2,5,6), KPC1-Δ1-974-6xHIS (lane 3), KPC1-Δ967-1043-6xHIS (lane 4), WILVRLW-KPC1-Δ1-1039-6xHIS (lanes 7-8) or WILVRLW-KPC1-Δ1-1061-6xHIS (lanes 9-10) in a reconstituted cell-free system.
# In order to assess if the interaction between two proteins leads to the conjugation of the substrate p105, ubiquitination reaction was performed in cell free system. The conjugation reaction was carried out in the presence of purified Ub, E1, E2, UbAl, ATP and KPC1—either wild-type or different mutant species. Samples were resolved via SDS-PAGE and the 35S-labeled p105 and its adducts were visualized using autoradiography. […] In addition, the shorter versions of KPC1 in which the 7 amino acids sequence were brought closer to RING domain, the active site of the enzyme were prepared. Both truncated KPC1 proteins that harbor the 7 amino acid sequence, WILVRLW-KPC1-Δ1-1039 (SEQ ID. No. 6) and WILVRLW-KPC1-Δ1-1061 (SEQ ID. No. 7), modified p105 (FIG. 4B, lanes 7-10).
molecule,measurement,setting,value
"WILVRLW [synthetic 7 amino acids peptide, positions 968-974 of KPC1]",inhibition of ubiquitination of p105 by KPC1-Δ1-967,[1]; non-modified peptides (FIG. 6),inhibited ubiquitination of p105 by KPC1-Δ1-967; also recorded: inhibits ubiquitination of p105
same,inhibition of ubiquitination of p105 by KPC1-Δ1-967,[1]; peptides modified by N-terminal amidation and C-terminal acetylation (FIG. 5),inhibited ubiquitination of p105 by KPC1-Δ1-967; also recorded: inhibits ubiquitination of p105
"KPC1-Δ1-967-6xHIS: purified 6xHIS KPC1 deleted species that has the sequence of WILVRLW (protein, left off: small tags and cut ends) WILVRLWRGCGFGYRYTRLPHLLKTKLEDANLPSLQKPCPSTLLQQHMADLLQQGPDVAPSFLNSVLNQLNWAFSEFIGMIQEIQQAAERLERNFVDSRQLKVCATCFDLSVSLLRVLEMTITLVPEIFLDWTRPTSEMLLRRLAQLLNQVLNRVTAERNLFDRVVTLRLPGLESVDHYPILVAVTGILVQLLVRGPASEREQATSVLLADPCFQLRSICYLLGQPEPPAPGTALPAPDRKRFSLQSYADYISADELAQVEQMLAHLTSASAQAAAASLPTSEEDLCPICYAHPISAVFQPCGHKSCKACINQHLMNNKDCFFCKTTIVSVEDWEKGANTSTTSSAA",processing of p105 by purified proteasome,[2],stimulates the processing of p105 by purified proteasome
"WILVRLW-KPC1-Δ1-1061: truncated KPC1 with the 7 amino acid sequence brought closer to RING domain, SEQ ID NO: 7 (protein) WILVRLWFVDSRQLKVCATCFDLSVSLLRVLEMTITLVPEIFLDWTRPTSEMLLRRLAQLLNQVLNRVTAERNLFDRVVTLRLPGLESVDHYPILVAVTGILVQLLVRGPASEREQATSVLLADPCFQLRSICYLLGQPEPPAPGTALPAPDRKRFSLQSYADYISADELAQVEQMLAHLTSASAQAAAASLPTSEEDLCPICYAHPISAVFQPCGHKSCKACINQHLMNNKDCFFCKTTIVSVEDWEKGANTSTTSSAA",ubiquitination of p105,[3],modified p105
"KPC1-Δ1-974-6xHIS: purified 6xHIS KPC1 deleted species lacking the 7 amino acids responsible for binding to p105 (protein, left off: small tags and cut ends) RGCGFGYRYTRLPHLLKTKLEDANLPSLQKPCPSTLLQQHMADLLQQGPDVAPSFLNSVLNQLNWAFSEFIGMIQEIQQAAERLERNFVDSRQLKVCATCFDLSVSLLRVLEMTITLVPEIFLDWTRPTSEMLLRRLAQLLNQVLNRVTAERNLFDRVVTLRLPGLESVDHYPILVAVTGILVQLLVRGPASEREQATSVLLADPCFQLRSICYLLGQPEPPAPGTALPAPDRKRFSLQSYADYISADELAQVEQMLAHLTSASAQAAAASLPTSEEDLCPICYAHPISAVFQPCGHKSCKACINQHLMNNKDCFFCKTTIVSVEDWEKGANTSTTSSAA",processing of p105 by purified proteasome,[2],could not stimulate processing
